Consider two molecules from patent publication US8067187 (CROSSBETA BIOSCIENCES B V, dated 2011).

Assay [1] addresses T1, tissue-type plasminogen activator (tPA, Actilyse, Boehringer-Ingelheim) (human, UniProt P00750 36-562).
T1 construct: Commercial product; also called recombinant human tPA
The experiment in a line: tPA binding (data not shown).

For assay [2], the target named is T2, human factor XII from plasma (Calbiochem) (human, UniProt P00748 20-615).
T2 construct: also called FXII
T2 sequence (looked up): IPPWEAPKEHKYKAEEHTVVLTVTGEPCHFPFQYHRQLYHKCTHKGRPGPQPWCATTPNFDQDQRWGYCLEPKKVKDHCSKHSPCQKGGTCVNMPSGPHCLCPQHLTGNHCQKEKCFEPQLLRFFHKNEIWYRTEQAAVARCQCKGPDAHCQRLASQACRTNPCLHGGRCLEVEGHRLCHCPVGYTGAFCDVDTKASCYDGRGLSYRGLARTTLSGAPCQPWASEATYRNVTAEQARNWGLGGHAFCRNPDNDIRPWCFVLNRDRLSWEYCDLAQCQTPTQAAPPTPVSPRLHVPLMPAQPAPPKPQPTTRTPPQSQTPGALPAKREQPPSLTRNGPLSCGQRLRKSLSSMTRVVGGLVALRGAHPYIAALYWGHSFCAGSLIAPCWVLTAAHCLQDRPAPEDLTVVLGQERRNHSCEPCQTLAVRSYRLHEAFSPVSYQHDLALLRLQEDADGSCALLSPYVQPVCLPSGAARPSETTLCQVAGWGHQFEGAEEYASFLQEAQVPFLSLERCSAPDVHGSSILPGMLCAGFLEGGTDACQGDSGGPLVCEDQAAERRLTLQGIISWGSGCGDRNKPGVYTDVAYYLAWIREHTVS
In words: ELISA, immobilized factor XII overlaid with a concentration series of β2GPI. A general note: ELISA stands for enzyme-linked immunosorbent assay.

Assay [3] addresses T1, tissue-type plasminogen activator (tPA, …). In words: ELISA, immobilized tPA overlaid with a concentration series of β2GPI.
In assay [4] the target is T3, anti-β2GPI auto-antibodies purified from plasma of patients with the Anti-phospholipid syndrome.
T3 construct: Polyclonal mixture; also called patient antibodies
The experiment in a line: competition ELISA: patient anti-β2GPI auto-antibodies with a β2GPI series in solution on immobilized plasma β2GPI. The protocol:
C. […] Eluted fractions are analyzed on Western blot after SDS-PA electrophoresis. […] Anti-β₂GPI auto-antibodies were purified from plasma of patients with the autoimmune disease Anti-phospholipid syndrome.

T1 sequence (P00750 36-562 limits assumed): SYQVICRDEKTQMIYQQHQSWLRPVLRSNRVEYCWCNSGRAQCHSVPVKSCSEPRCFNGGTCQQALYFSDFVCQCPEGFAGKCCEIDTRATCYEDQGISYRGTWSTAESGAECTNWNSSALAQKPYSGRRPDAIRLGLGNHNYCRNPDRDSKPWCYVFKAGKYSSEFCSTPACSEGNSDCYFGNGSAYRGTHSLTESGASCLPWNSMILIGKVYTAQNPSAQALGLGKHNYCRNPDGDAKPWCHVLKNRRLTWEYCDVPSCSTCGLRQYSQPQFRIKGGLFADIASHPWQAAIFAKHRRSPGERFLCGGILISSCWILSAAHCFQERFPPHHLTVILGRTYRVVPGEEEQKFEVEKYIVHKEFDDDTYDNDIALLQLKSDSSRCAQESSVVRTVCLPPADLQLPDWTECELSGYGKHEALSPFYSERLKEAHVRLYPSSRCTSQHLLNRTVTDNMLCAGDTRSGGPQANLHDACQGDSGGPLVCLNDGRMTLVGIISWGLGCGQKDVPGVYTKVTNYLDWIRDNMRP

B1: amyloid fibrin peptide FP13 K157G (peptide)
peptide: KRLEVDIDIGIRS
notes: Preparation with cross-β structure; also called amyloid FP13 K157G
On to B1, for which the binding result in assay [1] is on record as “binds”.

B2: recombinant human β2-glycoprotein I (other, UniProt P02749 20-345, looked up)
chain: GRTCPKPDDLPFSTVVPLKTFYEPGEEITYSCKPGYVSRGGMRKFICPLTGLWPINTLKCTPRVCPFAGILENGAVRYTTFEYPNTISFSCNTGFYLNGADSAKCTEEGKWSPELPVCAPIICPPPSIPTFATLRVYKPSAGNNSLYRDTAVFECLPQHAMFGNDTITCTTHGNWTKLPECREVKCPFPSRPDNGFVNYPAKPTLYYKDKATFGCHDGYSLDGPEEIECTKLGNWSAMPSCKASCKVPVKKATVVYQGERVKIQEKFKNGMLHGDKVSFFCKNKEKKCSYTEDAQCIDGTIEVPKCFKEHSSLAFWKTDASDVKPC
notes: also called recombinant β2GPI; rβ2GPI
In general, Kd refers to a measure of binding affinity in units of concentration. Low readings indicate tighter binding, high ones weaker binding. Turning to B2, the values for the Kd in assay [2] and in assay [3] were 20 nM and 51 nM, respectively. Besides, the “IC50 (read off the curve)” value in assay [4] was approximately 5 µg/mL.
